# Measurements from patent US20230235004A1 (published 2023).
# T1: mouse MAdCAM expressed on cells (mouse, UniProt Q61826 22-405)
# T1 construct: whole, on cells
# T1 sequence (looked up): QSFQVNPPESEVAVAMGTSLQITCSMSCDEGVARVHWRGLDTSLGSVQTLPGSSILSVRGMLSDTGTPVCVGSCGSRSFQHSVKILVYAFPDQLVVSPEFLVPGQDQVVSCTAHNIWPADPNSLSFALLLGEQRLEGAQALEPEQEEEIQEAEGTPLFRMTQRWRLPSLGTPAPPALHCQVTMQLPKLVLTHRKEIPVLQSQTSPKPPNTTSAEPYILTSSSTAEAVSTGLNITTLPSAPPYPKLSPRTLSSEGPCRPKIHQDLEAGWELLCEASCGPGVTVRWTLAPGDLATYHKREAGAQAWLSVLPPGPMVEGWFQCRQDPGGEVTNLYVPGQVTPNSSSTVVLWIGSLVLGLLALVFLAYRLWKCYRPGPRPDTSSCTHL
# T2: human MAdCAM expressed on cells (human, UniProt Q13477 19-382)
# T2 construct: whole, on cells
# T2 sequence (looked up): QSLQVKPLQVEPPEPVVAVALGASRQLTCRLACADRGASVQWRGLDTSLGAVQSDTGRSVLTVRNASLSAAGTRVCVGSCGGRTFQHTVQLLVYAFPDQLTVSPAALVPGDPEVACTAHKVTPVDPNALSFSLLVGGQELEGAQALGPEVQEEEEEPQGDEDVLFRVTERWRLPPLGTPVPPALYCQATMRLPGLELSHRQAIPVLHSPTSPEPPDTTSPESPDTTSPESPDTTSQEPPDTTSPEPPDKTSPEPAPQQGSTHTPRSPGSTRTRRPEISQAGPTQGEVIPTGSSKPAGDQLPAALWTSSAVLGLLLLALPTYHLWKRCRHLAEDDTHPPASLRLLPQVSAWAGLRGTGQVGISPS
# Tests used:
# [1] = biological target: T1, mouse MAdCAM expressed on cells; assay: cell binding
# [2] = biological target: T2, human MAdCAM expressed on cells; assay: cell binding
Binder,binding result [1],binding result [2]
"MAdCAM Antibody Table 2 clone 45 (antibody, V domains shown, IgG format) VH: EVQLVESGGGLVKPGGSLRLSCAASGFTFGDYAMSWVRQAPGKGLEWVSYISGDIGYTNYAAPVKGRFTISRDDSKNTLYLQMNSLKTEDTAVYYCARDVAATGNWYFDLWGRGTLVTVSS VL: not shown",no binding,–
"MAdCAM Antibody Table 2 clone 9 (antibody, V domains shown, IgG format) VH: QVQLVQSGAEVKKPGASVKVSCKASGYTFTSYYMHWVRQAPGQGLEWMGIINHSGGSTSYAQKFQGRVTMTRDTSTSTVYMELSSLRSEDTAVYYCARPYSGWYFAFDIWGQGTLVTVSS VL: not shown",no binding,–
"MAdCAM Antibody Table 2 clone 13 (antibody, V domains shown, IgG format) VH: QVQLVQSGAEVKKPGASVKVSCKASGYTFTTYYMHWVRQAPGQGLEWMGGFDPEDGETIYAQKFQGRVTMTRDTSTSTVYMELSSLRSEDTAVYYCARHAVAGAVGAGYYYYGMDVWGQGTMVTVSS VL: DIQMTQSPSSLSASVGDRVTITCRASESISNWLAWYQQKPGKAPKLLIYAASTLQSGVPSRFSGSGSGTDFTLTISSLQPEDFATYYCQQSYSVPFTFGPGTKVDIK",no binding,binds
"MAdCAM Antibody Table 2 clone 19 (antibody, V domains shown, IgG format) VH: EVQLLESGGGLVQPGGSLRLSCAASGFTFEDYAMHWVRQAPGKGLEWVSYLNSDGGSTSYADSVKGRFTISRDNSKNTLYLQMNSLRAEDTAVYYCAKDYCTNGVCAFDYWGQGTLVTVSS VL: DIQMTQSPSSLSASVGDRVTITCRASQSISTYLNWYQQKPGKAPKLLIYDASNLETGVPSRFSGSGSGTDFTLTISSLQPEDFATYYCQQSYTIPITFGQGTRLEIK",no binding,binds
"MAdCAM Antibody Table 2 clone 34 (antibody, V domains shown, IgG format) VH: QVQLVQSGAEVKKPGASVKVSCKASGYTFTGYYIHWVRQAPGQGLEWMGWMNPNSGNTGYAQKFQGRVTMTRDTSTSTVYMELSSLRSEDTAVYYCARDPGFLGYCSGGSCYDGWFDPWGQGTLVTVSS VL: DIQMTQSPSSLSASVGDRVTITCRASQSISSYLHWYQQKPGKAPKLLIYAASSLQSGVPSRFSGSGSGTDFTLTISSLQPEDFATYYCQQSYTAPYTFGQGTKLEIK",no binding,binds
"MAdCAM Antibody Table 2 clone 35 (antibody, V domains shown, IgG format) VH: QVQLVQSGAEVKKPGASVKVSCKASGYTFTGYYIHWVRQAPGQGLEWMGWMNPNSGNTGYAQKFQGRVTMTRDTSTSTVYMELSSLRSEDTAVYYCARDPGFLGYSSGGSSYDGWFDPWGQGTLVTVSS VL: DIQMTQSPSSLSASVGDRVTITCRASQSISSYLHWYQQKPGKAPKLLIYAASSLQSGVPSRFSGSGSGTDFTLTISSLQPEDFATYYCQQSYTAPYTFGQGTKLEIK",no binding,–
"MAdCAM Antibody Table 2 clone 26 (antibody, V domains shown, IgG format) VH: EVQLLESGGGLVQPGGSLRLSCAASGFTFSSYAMSWVRQAPGKGLEWVSYISSSSTYTNYADSVKGRFTISRDNSKNTLYLQMNSLRAEDTAVYYCARANSSSWYDWYFDLWGQGTLVTVSS VL: not shown",no binding,binds
"MAdCAM Antibody Table 2 clone 10 (antibody, V domains shown, IgG format) VH: EVQLLESGGGLVQPGGSLRLSCAASGFMFGDYAMHWVRQAPGKGLEWVSAISGSGGSTYYADSVKGRFTISRDNSKNTLYLQMNSLRAEDTAVYYCAKDLVVAGIWYFDLWGRGTLVTVSS VL: DIQMTQSPSSLSASVGDRVTITCRASQGISNNLNWYQQKPGKAPKLLIYDASSLESGVPSRFSGSGSGTDFTLTISSLQPEDFATYYCQQTHSFPSTFGQGTKLEIK",binds,binds
"MAdCAM Antibody Table 2 clone 1 (antibody, V domains shown, IgG format) VH: EVQLLESGGGLVQPGGSLRLSCAASGFTFSSYGMHWVRQAPGKGLEWVAVISDDGSDKYYADSVKGRFTISRDNSKNTLYLQMNSLRAEDTAVYYCTTSKYYYYYGMDVWGQGTTVTVSS VL: DIQMTQSPSSLSASVGDRVTITCQASQDISKSLNWYQQKPGKAPKLLIYAASSLQSGVPSRFSGSGSGTDFTLTISSLQPEDFATYYCQQGYSTPLTFGGGTKVEIK",binds,binds
"MAdCAM Antibody Table 2 clone 12 (antibody, V domains shown, IgG format) VH: QVQLVQSGAEVKKPGASVKVSCKASGYTLTTWYMYWVRQAPGQGLEWMGWINPNRGATNYAQKFQGRVTMTRDTSTSTVYMELSSLRSEDTAVYYCAKGDLWGAMDVWGQGTLVTVSS VL: DIQMTQSPSSLSASVGDRVTITCRASDNIGSWLAWYQQKPGKAPKLLIYAASSLQSGVPSRFSGSGSGTDFTLTISSLQPEDFATYYCQQGYSTPPTFGQGTKVEIK",no binding,binds

# Continued, values first:
binding result [1],binding result [2],Binder
no binding,binds,"MAdCAM Antibody Table 2 clone 15 (antibody, V domains shown, IgG format) VH: QVQLVQSGAEVKKPGASVKVSCKASGYTFTGYYMHWVRQAPGQGLEWMGWIGPNSGDTNYAQKFQGRVTMTRDTSTSTVYMELSSLRSEDTAVYYCARDLDHNWYFDLWGRGTLVTVSS VL: DIVMTQSPLSLPVTPGEPASISCRSSQSLLHSNGYNYLDWYLQKPGQSPQLLIYSSSNRAPGVPDRFSGSGSGTDFTLKISRVEAEDVGVYYCMQALHIPLTFGGGTKVEIK"
no binding,binds,"MAdCAM Antibody Table 2 clone 18 (antibody, V domains shown, IgG format) VH: QVQLVQSGAEVKKPGSSVKVSCKASGYTFTNYYMHWVRQAPGQGLEWMGGIIPIVDRVKYAQKFQGRVTITADESTSTAYMELSSLRSEDTAVYYCAKGRYTVNYYYGMDVWGQGTTVTVSS VL: DIQMTQSPSSLSASVGDRVTITCQANQDISNYLNWYQQKPGKAPKLLIYRASKLEAGVPSRFSGSGSGTDFTLTISSLQPEDFATYYCQQSSEIPYSFGQGTKLEIK"
no binding,binds,"MAdCAM Antibody Table 2 clone 27 (antibody, V domains shown, IgG format) VH: EVQLLESGGGLVQPGGSLRLSCAASGFTFSSYQMSWVRQAPGKGLEWVSYISSSSTYTNYADSVKGRFTISRDNSKNTLYLQMNSLRAEDTAVYYCARANSSSWYDWYFDLWGQGTLVTVSS VL: not shown"
no binding,binds,"MAdCAM Antibody Table 2 clone 21 (antibody, V domains shown, IgG format) VH: EVQLVESGGGLVKPGGSLRLSCAASGFTFSSYWMSWVRQAPGKGLEWVSYISGDSGYTNYAAPVKGRFTISRDDSKNTLYLQMNSLKTEDTAVYYCARANSSGWYDWYFDLWGRGTLVTVSS VL: not shown"
no binding,–,"MAdCAM Antibody Table 2 clone 52 (antibody, V domains shown, IgG format) VH: EVQLLESGGGLVQPGGSLRLSCAASGFTFDDYGMSWVRQAPGKGLEWVSYISSSSSYIYYADSVKGRFTISRDNSKNTLYLQMNSLRAEDTAVYYCAREIAAAGFYGMDVWGQGTTVTVSS VL: not shown"
no binding,binds,"MAdCAM Antibody Table 2 clone 16 (antibody, V domains shown, IgG format) VH: EVQLLESGGGLVQPGGSLRLSCAASGFTFDDYAMHWVRQAPGKGLEWVSYIDASGTTIYYADSVKGRFTISRDNSKNTLYLQMNSLRAEDTAVYYCAKDQAAAGYWYFDLWGRGTLVTVSS VL: DIQMTQSPSSLSASVGDRVTITCQASQDISNYLNWYQQKPGKAPKLLIYKASTLESGVPSRFSGSGSGTDFTLTISSLQPEDFATYYCQQSYSTPITFGQGTRLEIK"
no binding,–,"MAdCAM Antibody Table 2 clone 40 (antibody, V domains shown, IgG format) VH: QVQLVQSGAEVKKPGASVKVSCKASGYTLTTWYMYWVRQAPGQGLEWMGWINPNRGATNYAQKFQGRVTMTRDTSTSTVYMELSSLRSEDTAVYYCAKGDLWGAMDVWGQGTLVTVSS VL: DIQMTQSPSSLSASVGDRVTITCRASDNIGSWLAWYQQKPGKAPKLLIYAASSLQSGVPSRFSGSGSGTDFTLTISSLQPEDFATYYCQQGYSTPPTFGQGTKVEIK"
no binding,–,"MAdCAM Antibody Table 2 clone 32 (antibody, V domains shown, IgG format) VH: QVQLVQSGAEVKKPGASVKVSCKASGYTLTTWYMYWVRQAPGQGLEWMGWINPNRGATNYAQKFQGRVTMTRDTSTSTVYMELSSLRSEDTAVYYCAKGDLWGAMDVWGQGTLVTVSS VL: DIQMTQSPSSLSASVGDRVTITCRASDNIGSWLAWYQQKPGKAPKLLIYAASSLQSGVPSRFSGSGSGTDFTLTISSLQPEDFATYYCQQGYSTPPTFGQGTKVEIK"
no binding,binds,"MAdCAM Antibody Table 2 clone 25 (antibody, V domains shown, IgG format) VH: EVQLLESGGGLVQPGGSLRLSCAASGFTFSNAWMSWVRQAPGKGLEWVSTIVGNGGATYYADSVKGRFTISRDNSKNTLYLQMNSLRAEDTAVYYCARDNPLRWQGMDVWGQGTLVTVSS VL: DIQMTQSPSSLSASVGDRVTITCRASQDISNYLNWYQQKPGKAPKLLIYAASSLQSGVPSRFSGSGSGTDFTLTISSLQPEDFATYYCQQSYSIPPTFGPGTKVDIK"
no binding,–,"MAdCAM Antibody Table 2 clone 33 (antibody, V domains shown, IgG format) VH: QVQLVQSGAEVKKPGASVKVSCKASGYTLTTWYMYWVRQAPGQGLEWMGWINPNRGATNYAQKFQGRVTMTRDTSTSTVYMELSSLRSEDTAVYYCAKGDLWGAMDVWGQGTTVTVSS VL: DIQMTQSPSSLSASVGDRVTITCRASDNIGSWLAWYQQKPGKAPKLLIYAASSLQSGVPSRFSGSGSGTDFTLTISSLQPEDFATYYCQQGYSTPPTFGQGTKVEIK"
